From patent publication US20230203129A1 (BRACCO IMAGING S P A, published 2023)

Tests used:
Experiment in all cases: ELISA during and after library selection
human serum albumin = molecular target: T1, human serum albumin (human, UniProt P02768 25-609)
T1 construct: also called HSA

murine serum albumin = molecular target: T2, murine serum albumin (murine, UniProt P07724 25-608)
T2 construct: also called MSA; mouse serum albumin

bovine serum albumin = molecular target: T3, bovine serum albumin (bovine, UniProt P02769 25-607)
T3 construct: also called BSA
T3 sequence (P02769 25-607 limits assumed): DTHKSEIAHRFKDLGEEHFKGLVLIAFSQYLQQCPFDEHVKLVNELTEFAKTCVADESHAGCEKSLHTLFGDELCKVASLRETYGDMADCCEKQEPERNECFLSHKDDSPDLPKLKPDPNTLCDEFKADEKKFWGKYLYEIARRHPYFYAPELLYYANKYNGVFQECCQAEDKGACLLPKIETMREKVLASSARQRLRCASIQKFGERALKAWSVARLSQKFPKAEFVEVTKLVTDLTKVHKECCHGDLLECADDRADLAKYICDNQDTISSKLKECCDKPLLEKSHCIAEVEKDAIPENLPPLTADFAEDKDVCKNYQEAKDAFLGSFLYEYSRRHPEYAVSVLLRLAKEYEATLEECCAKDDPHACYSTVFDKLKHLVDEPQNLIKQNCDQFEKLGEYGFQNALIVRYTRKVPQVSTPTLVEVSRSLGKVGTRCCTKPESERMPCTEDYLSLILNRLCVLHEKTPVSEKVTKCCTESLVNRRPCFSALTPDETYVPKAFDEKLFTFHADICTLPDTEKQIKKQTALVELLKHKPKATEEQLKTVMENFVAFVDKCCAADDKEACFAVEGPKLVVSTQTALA

Measured: binding result

T1 sequence (P02768 25-609 limits assumed): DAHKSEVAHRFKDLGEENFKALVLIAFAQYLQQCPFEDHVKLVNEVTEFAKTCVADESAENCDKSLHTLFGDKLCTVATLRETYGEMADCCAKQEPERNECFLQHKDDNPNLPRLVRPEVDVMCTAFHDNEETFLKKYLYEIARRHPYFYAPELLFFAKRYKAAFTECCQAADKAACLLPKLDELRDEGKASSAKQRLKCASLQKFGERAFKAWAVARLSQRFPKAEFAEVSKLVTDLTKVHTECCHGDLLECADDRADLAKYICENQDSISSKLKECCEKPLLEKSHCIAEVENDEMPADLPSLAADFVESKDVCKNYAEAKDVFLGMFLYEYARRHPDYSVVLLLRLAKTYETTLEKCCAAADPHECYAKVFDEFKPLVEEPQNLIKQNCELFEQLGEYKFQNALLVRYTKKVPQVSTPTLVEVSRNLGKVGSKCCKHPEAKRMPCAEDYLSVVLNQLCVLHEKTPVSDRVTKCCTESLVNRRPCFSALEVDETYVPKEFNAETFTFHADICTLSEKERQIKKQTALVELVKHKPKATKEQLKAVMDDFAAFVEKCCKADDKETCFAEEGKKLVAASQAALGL

B1: affitin Aff03 (designed binder)
chain: VKVKFGHMGEEKEVDTSKIYAVNRAGKFVHFAYDDNGKFGSGSVPEKDAPKELLDMLARAEREK
no binding: all assays above
